Test results published in US20210032351A1 (XDCEXPLORER SHANGHAI, published 2021).
Numbering of substitutions follows the chain as printed.

B1: Humanized antibody h75G7C6-3 (antibody, human IgG1, V domains shown)
VH: EVQLVQSGAEVKKPGASVKVSCKASGYTFTDYNMDWVKQAPGQGLEWIGDINPNNADTIYNQKFKGRVTLTVDKSTSTVYMELSSLRSEDTAVYYCARGDYDGYYPVYYAMDYWGQGTTVTVSS
VL: ENVLTQSPATLSLSPGERATLSCRASSSVSSSYLHWYQQKPGQSPRLLIFSTSNLAAGIPARFSGSGSGTDYTLTISSLEPEDFAVYYCQQYSGYPLTFGGGTKVEIK
B2: Humanized antibody h75G7C6-4 (antibody, human IgG1, V domains shown)
VH: B1 VH
VL: B1 VL with I59V
B3: Humanized antibody h75G7C6-6 (antibody, human IgG1, V domains shown)
VH: B1 VH with E1Q, K38R, I48M, L70M, V72R, K74T
VL: B1 VL with S44A
B4: Humanized antibody h75G7C6-7 (antibody, human IgG1, V domains shown)
VH: B1 VH with E1Q, K38R, I48M, L70M, V72R, K74T
VL: B1 VL
B5: Humanized antibody h75G7C6-8 (antibody, human IgG1, V domains shown)
VH: B1 VH with E1Q, K38R, I48M, L70M, V72R, K74T
VL: B1 VL with I59V
B6: Humanized antibody h75G7C6-11 (antibody, human IgG1, V domains shown)
VH: B1 VH with E1Q, K38R, K74T
VL: B1 VL
notes: also called VH-g1/VL-g2
B7: Humanized antibody h75G7C6-12 (antibody, human IgG1, V domains shown)
VH: B1 VH with E1Q, K38R, K74T
VL: B1 VL with I59V
notes: also called VH-g1/VL-g3
B8: Chimeric antibody c63A10A7 (antibody, human IgG1, V domains shown)
VH: QVQLQQSGAELARPGASVKMSCKASGYTFISFTMHWVKQRPGQGLEWIGYINPNSGYTKYNQKFKDKATLTAGQSSSTAYMQLSSLTSEDSAVYYCTRGGGRGFAYWGQGTLVTVSA
VL: DILMTQSPSSMSVSLGDTVTITCHASQDINSNIGWLQQKPGKSFKALIYHGTNLEDGVPSRFSGSGSGADYSLTISSLESEDFADYYCVQYAQFPFTFGSGTKLEIK
notes: also called chimeric antibody 63A10
B9: Humanized antibody h63A10A7-17 (antibody, human IgG1, V domains shown)
VH: QVQLVQSGAEVKKPGASVKVSCKASGYTFISFTMHWVKQRPGQGLEWIGYINPNSGYTKYNQKFKDKATLTRDTSTSTVYMELSSLRSEDTAVYYCTRGGGRGFAYWGQGTLVTVSS
VL: B8 VL with M11L, V13A, L15V, T18R, S72T, E79Q, S80P, D85T, S100Q
notes: Human IgG1 constant region, human kappa constant region
B10: Humanized antibody h63A10A7-18 (antibody, human IgG1, V domains shown)
VH: B9 VH with R72A, T74Q, V79A
VL: B8 VL with M11L, V13A, L15V, T18R, S72T, E79Q, S80P, D85T, S100Q
notes: as for B9
B11: Humanized antibody h63A10A7-19 (antibody, human IgG1, V domains shown)
VH: B9 VH with I48M, L70M
VL: B8 VL with M11L, V13A, L15V, T18R, S72T, E79Q, S80P, D85T, S100Q
notes: as for B9
B12: Humanized antibody h63A10A7-20 (antibody, human IgG1, V domains shown)
VH: B9 VH with K38R, R40A
VL: B8 VL with M11L, V13A, L15V, T18R, S72T, E79Q, S80P, D85T, S100Q
notes: as for B9
B13: Humanized antibody h63A10A7-21 (antibody, human IgG1, V domains shown)
VH: B9 VH with K67R, A68V
VL: B8 VL with M11L, V13A, L15V, T18R, S72T, E79Q, S80P, D85T, S100Q
notes: as for B9
B14: Humanized antibody h63A10A7-22 (antibody, human IgG1, V domains shown)
VH: B9 VH
VL: B8 VL with L3Q, M11L, V13A, L15V, T18R, S72T, E79Q, S80P, D85T, S100Q
notes: as for B9
B15: Humanized antibody h63A10A7-23 (antibody, human IgG1, V domains shown)
VH: B9 VH
VL: DILMTQSPSSLSASVGDRVTITCHASQDINSNIGWLQQKPGKAPKALIYHGTNLEDGVPSRFSGSGSGADYTLTISSLQPEDFATYYCVQYAQFPFTFGQGTKLEIK
notes: as for B9
B16: Humanized antibody h63A10A7-24 (antibody, human IgG1, V domains shown)
VH: B9 VH
VL: B15 VL with A43S, P44F, A69T
notes: as for B9
B17: Humanized antibody h63A10A7-25 (antibody, human IgG1, V domains shown)
VH: B9 VH
VL: B15 VL with L36Y, A43S, P44F
notes: as for B9
B18: Humanized antibody h63A10A7-26 (antibody, human IgG1, V domains shown)
VH: B9 VH
VL: B15 VL with L36Y, A43S, P44F, Y71F
notes: as for B9
B19: Humanized antibody h63A10A7-37 (antibody, human IgG1, V domains shown)
VH: B9 VH with I48M, L70M
VL: B15 VL with L3Q, A43S, P44F
notes: as for B9
B20: Humanized antibody h63A10A7-38 (antibody, human IgG1, V domains shown)
VH: B9 VH with K38R, R40A
VL: B15 VL with L3Q, A43S, P44F
notes: as for B9
B21: Humanized antibody h63A10A7-39 (antibody, human IgG1, V domains shown)
VH: B9 VH with K67R, A68V
VL: B15 VL with L3Q, A43S, P44F
notes: as for B9

Tests used:
[1] = target: human EGFRvIII protein on the cell surface (human) (UniProt P00533); assay: FACS on U87MG-EGFRvIII cells
[2] = target: human EGFRvIII-hFc protein (human) (UniProt P00533); assay: ELISA, EGFRvIII-hFc coated
[3] = target: T1, human EGFRvIII-hFc protein (human, UniProt P00533 25-645); assay: ELISA, EGFRvIII-hFc coated
T1 construct: extracellular domain; also called immunogen A; hFc-tagged EGFRvIII protein; not shown: human IgG Fc fragment (hFc) of the pCpC vector
Protocol: The purified humanized anti-EGFRvIII antibody obtained in example 12 is reacted with a human EGFRvIII-hFc protein.
The purified immunogen A (EGFRvIII-hFc) obtained in example 1 (for the preparation method, see step (I) in example 1) is diluted with PBS to a final concentration of 1.0 μg/mL, and then added to a 96-well ELISA plate at 100 μl/well. The plate is sealed with a plastic film and incubated at 4° C. overnight. The next day, the plate is washed twice with a plate washing solution [PBS+0.01% (v/v) Tween20], and added with a blocking solution [PBS+0.01% (v/v) Tween20+1% (w/w) BSA] for blocking 2 hours at room temperature. […] The plate is incubated for 2 hours at 37° C., and then washed 3 times with the plate washing solution [PBS+0.01% (v/v) Tween20]. The plate is added with an HRP (horseradish peroxidase) labeled secondary antibody (purchased from Sigma), incubated at 37° C. for 2 hours, and then washed 3 times with the plate washing solution [PBS+0.01% (v/v) Tween20]. The plate is added with 100 μl of TMB substrate/well, incubated for 30 minutes at room temperature, and then added with 100 μl of stopping solution (1.0N HCl)/well. A450 nm value is read using an ELISA plate reader (SpectraMax 384plus, purchased from Molecular Device).

[4] = target: T2, human EGFRvIII protein on the cell surface (human, UniProt P00533 25-1210); assay: FACS on U87MG-EGFRvIII cells
T2 construct: whole, on cells; the cell line is named under assay; also called hEGFRvIII; U87MG-hEGFRvIII
Protocol: (§1) The preparation of U87MG-EGFRvIII required for FACS detection is as described in the preparation of the immunogen B in example 1. Normal human primary hepatocytes are purchased from BioreclamationIVT, and A431 tumor cells are purchased from ATCC. The recovered hepatocytes are directly used for FACS detection, and the recovered U87MG-EGFRvIII and A431 cells are subjected to an expanded culture to 90% confluence in a T-75 cell culture flask; the medium is sucked out, and the cells are washed twice with a HBSS buffer (Hanks Balanced Salt Solution) (purchased from Invitrogen), and then treated with an enzyme-free cell dissociation solution (Versene solution: purchased from Life Technology) and collected. The cells are washed twice with the HBSS buffer and are counted, and then the cells are diluted with the HBSS buffer to 2×10⁶ cells/ml, added with 1% goat serum blocking solution, with the percentage being the mass percentage, and incubated on ice for 30 minutes, and then centrifugally washed twice with the HBSS buffer. The collected cells are resuspended to 2×10⁶ cells/mL with an FACS buffer (HBSS+2% FBS, with the percentage being the volume percentage), added to a 96-well FACS reaction plate at 100 μL/well, then added with 100 μL/well of the purified EGFRvIII antibody (samples to be tested) obtained in example 12, and incubated on ice for 2 hours. The plate is centrifugally washed twice with the FACS buffer, added with 100 μL/well of a 1:1000 diluted fluorescence (Alexa 488) labeled secondary antibody (purchased from Invitrogen), and incubated on ice for 1 hour. The plate is centrifugally washed 3 times with the FACS buffer, added with 100 μL/well of a fixing solution [4% (v/v) paraformaldehyde] to resuspend the cells, and centrifugally washed twice with the FACS buffer after 10 minutes. The cells are resuspended in 100 μL of the FACS buffer, and the results are detected and analyzed by FACS (FACS Calibur, purchased from BD). Data analysis is performed by using the software (CellQuest) to obtain the mean fluorescence intensity (MFI) of the cells. Data is further analyzed by using the software (GraphPad Prism5) to perform data fitting and calculate EC50.

[5] = target: T3, wild-type EGFR protein on the surfaces of A431 tumor cells and normal human primary hepatocytes (human, UniProt P00533 25-1210); assay: FACS, MFI on A431 cells over MFI on normal primary hepatocytes
T3 construct: whole, on cells; Same protein on two cell types; also called human epidermal growth factor receptor; her-1
Protocol: as §1

[6] = target: T3, wild-type EGFR protein on the surfaces …; assay: FACS, A431 tumor cells
Protocol: as §1

[7] = target: T3, wild-type EGFR protein on the surfaces …; assay: FACS, normal human primary hepatocytes
Protocol: as §1

| Selective window (MFIA431/Hepatocytes) [5] | mean fluorescence intensity (MFI) [6] | mean fluorescence intensity (MFI) [7] | also measured | Binder |
| --- | --- | --- | --- | --- |
| – | – | – | EC50 [1]: 5.6 nM; Maximum mean fluorescence intensity [1]: 18600 MFI; EC50 [2]: 0.51 nM; Maximum OD450 value [2]: 3.44 OD450 | B1 |
| – | – | – | EC50 [1]: 5.57 nM; Maximum mean fluorescence intensity [1]: 18700 MFI; EC50 [2]: 0.45 nM; Maximum OD450 value [2]: 3.37 OD450 | B2 |
| – | – | – | EC50 [1]: 5.96 nM; Maximum mean fluorescence intensity [1]: 17100 MFI; EC50 [2]: 0.68 nM; Maximum OD450 value [2]: 3.2 OD450 | B3 |
| – | – | – | EC50 [1]: 5.74 nM; Maximum mean fluorescence intensity [1]: 17200 MFI; EC50 [2]: 1.1 nM; Maximum OD450 value [2]: 2.97 OD450 | B4 |
| – | – | – | EC50 [1]: 11.6 nM; Maximum mean fluorescence intensity [1]: 17600 MFI; EC50 [2]: 2 nM; Maximum OD450 value [2]: 2.72 OD450 | B5 |
| – | – | – | EC50 [3]: 0.67 nM; Maximum OD450 value [3]: 2.96 OD450; EC50 [4]: 5.11 nM; Maximum mean fluorescence intensity [4]: 17600 MFI | B6 |
| – | – | – | EC50 [3]: 0.57 nM; Maximum OD450 value [3]: 2.73 OD450; EC50 [4]: 5.2 nM; Maximum mean fluorescence intensity [4]: 17800 MFI | B7 |
| 15.8 ratio | 4730 MFI | 299 MFI | – | B8 |
| 15.6 ratio | 10600 MFI | 677 MFI | – | B9 |
| 16.5 ratio | 9140 MFI | 553 MFI | – | B10 |
| 8.7 ratio | 3830 MFI | 439 MFI | – | B11 |
| 15.4 ratio | 7460 MFI | 486 MFI | – | B12 |
| 14 ratio | 7930 MFI | 568 MFI | – | B13 |
| 15.8 ratio | 9380 MFI | 592 MFI | – | B14 |
| 6 ratio | 4000 MFI | 661 MFI | – | B15 |
| 19.6 ratio | 9860 MFI | 502 MFI | – | B16 |
| 17 ratio | 7360 MFI | 433 MFI | – | B17 |
| 14.1 ratio | 6130 MFI | 435 MFI | – | B18 |
| 5 ratio | 1320 MFI | 265 MFI | – | B19 |
| 4.2 ratio | 1060 MFI | 254 MFI | – | B20 |
| 7.5 ratio | 1960 MFI | 261 MFI | – | B21 |
